Columns and labels:
[1] = test system: Transgenic C. elegans worms that overexpress human wildtype α-syn; assay: Dopaminergic neuron loss in α-syn transgenic worm model; assay type: in vivo; conditions: human 14-3-3θ overexpressed along with α-syn
Source text: FIG. 10. Overexpression of 14-3-3θ protects against dopaminergic cell loss in the α-syn transgenic C. elegans worm model. Double transgenic worms were created in which the 14-3-3θ isoform was overexpressed along with α-syn.
We turned to the C. elegans model of PD, in which human wildtype α-syn is overexpressed. […] Double transgenic worms were created in which the 14-3-3θ isoform was overexpressed along with α-syn. […] In contrast, 18.9% of worms that overexpressed human 14-3-3θ along with α-syn had all six dopaminergic neurons at seven days (FIG. 10; p<0.001 compared to α-syn worms). 12.9% of worms had the full anterior complement of dopaminergic neurons at 10 days (FIG. 10; p<0.00001).

H4 cells = assay: α-syn toxicity assay, adenylate kinase released into the media; assay type: cell-based; conditions: co-transfected with wildtype α-syn; 24 hours after transfection; vs empty vector
Procedure: Briefly, H4 cells were transfected with wildtype α-syn and each of the 14-3-3 polypeptide isoforms or empty vector controls as discussed above. Twenty-four hours after transfection, cell death was assayed by adenylate kinase activity in the media (n=4, *p<0.05, **p<0.01, ***p<0.001).
Primers against each of the human 14-3-3 isoforms were designed using Primer3. Primers against 14-3-3β (NM_018753) were 5′ […] 3′ (forward; SEQ ID NO. 9) and 5′ […] 3′ (reverse; SEQ ID NO. 10). Primers against 14-3-3ε (NM_009536) were 5′ […] 3′ (forward; SEQ ID NO. 11) and 5′ […] 3′ (reverse; SEQ ID NO. 12). Primers against 14-3-3γ (NM_018871) were 5′ […] 3′ (forward; SEQ ID NO. 13) and 5′ […] 3′ (reverse; SEQ ID NO. 14). Primers against 14-3-3η (NM_011738) were 5′ […] 3′ (forward; SEQ ID NO. 15) and 5′ […] 3′ (reverse; SEQ ID NO. 16). Primers against 14-3-3θ (NM_011739) were 5′ […] 3′ (forward; SEQ ID NO. 17) and 5′ […] 3′ (reverse; SEQ ID NO. 18). Primers against 14-3-3σ (NM_018754) were 5′ […] 3′ (forward; SEQ ID NO. 19) and 5′ […] 3′ (reverse; SEQ ID NO. 20). Primers against 14-3-3ζ(NM_011740) were 5′ […] 3′ (forward; SEQ ID NO. 21) and 5′ […] 3′ (reverse; SEQ ID NO. 22). Primers against GAPDH were 5′ tggtgaagcaggeatctga 3′ (forward; SEQ ID NO. 23) and 5′ […] […] All cells stained for α-syn were scored as positive or negative for α-syn aggregates, with the rater blind to experimental condition. • α-syn toxicity assay H4 cells were transfected with α-syn and either empty vector control or a 14-3-3 isoform using Superfect transfection reagent (Qiagen). 24 hours after transfection, toxicity was measured by the amount of adenylate kinase released into the media using the ToxiLight™ kit (Cambrex). • Creation of stable cell lines Each 14-3-3 isoform was subcloned into the mammalian expression vector mcDNA3.1/V5-His (Invitrogen). […] Protein concentrations of supernatants were determined by the bicinchoninic acid assay (BCA; Pierce, Rockford, Ill.). […]

naïve M17 cells = assay: Rotenone toxicity after transient transfection, scoring of apoptotic nuclei; assay type: cell-based, human; conditions: rotenone 0, 0.2 or 1 μM for 24 hours, vs control transfection
Procedure: FIGS. 6A-D show M17 cells overexpressing 14-3-3θ are resistant to rotenone treatment. Cell lines stably-transfected with either 14-3-3θ or empty vector were treated with varying concentrations of rotenone (0-25 μM) for 24 hours (FIG. 6A), 30 hours (FIG. 6B), or 48 hours (FIG. 6C). Cell death was assayed by LDH release into the culture media. LDH release into media was normalized to total LDH release for each well. The 14-3-3θ-overexpressing line was more resistant to rotenone in a dose-dependent manner compared to control stable cells at all time points tested. […] Rater was blind to experimental condition. n=8 for each experimental condition. *p<0.05, ***p<0.001 (Bonferroni's multiple comparison test).
The effects of 14-3-3θ overexpression on rotenone toxicity was also examined by transient transfection of this isoform into naïve M17 cells. Briefly, M17 cells were transfected with V5-tagged 14-3-3θ isoform or enhanced yellow fluorescent protein (EYFP) (control) and were treated with rotenone for 24 hours at 0, 0.2, or 1 μM rotenone. Because of the relatively low rates of transfection, after the treatment period cells were fixed and stained against V5 (or GFP in the case of control), followed by Hoechsht 33342 staining. With the rater blind to experimental condition, the nuclei of cells that stained for V5 or GFP were scored as normal or apoptotic.

B1: 14-3-3θ: 14-3-3 polypeptide θ isoform, overexpressed from V5/His-tagged pcDNA3.1 vector (or as transgene in C. elegans) (protein, UniProt P27348 1-245, looked up)
14-3-3 protein theta: MEKTELIQKAKLAEQAERYDDMATCMKAVTEQGAELSNEERNLLSVAYKNVVGGRRSAWRVISSIEQKTDTSDKKLQLIKDYREKVESELRSICTTVLELLDKYLIANATNPESKVFYLKMKGDYFRYLAEVACGDDRKQTIDNSQGAYQEAFDISKKEMQPTHPIRLGLALNFSVFYYEILNNPELACTLAKTAFDEAIAELDTLNEDSYKDSTLIMQLLRDNLTLWTSDSAGEECDAAEGAEN
modifications: V5/His tag
worms with the full anterior complement of dopaminergic neurons ([1]; 10 days): 12.9% | worms with all six anterior dopaminergic neurons present ([1]; seven days): 18.9% | effect on α-syn dependent cell death (adenylate kinase activity in the media) (H4 cells): protective effects | cell death (apoptotic nuclei) in response to rotenone treatment (naïve M17 cells): decreased cell death

B2: 14-3-3ζ: 14-3-3 polypeptide ζ isoform, overexpressed from expression vector (protein, UniProt P63104 1-245, looked up)
14-3-3 protein zeta/delta: MDKNELVQKAKLAEQAERYDDMAACMKSVTEQGAELSNEERNLLSVAYKNVVGARRSSWRVVSSIEQKTEGAEKKQQMAREYREKIETELRDICNDVLSLLEKFLIPNASQAESKVFYLKMKGDYYRYLAEVAAGDDKKGIVDQSQQAYQEAFEISKKEMQPTHPIRLGLALNFSVFYYEILNSPEKACSLAKTAFDEAIAELDTLSEESYKDSTLIMQLLRDNLTLWTSDTQGDEAEAGEGGEN
effect on α-syn dependent cell death (adenylate kinase activity in the media) (H4 cells): protective effects

From patent publication US7919262B2, “14-3-3 proteins for diagnosis of Parkinson's disease” (The UAB Research Foundation, priority 2007, dated 2011)
